Experimental data as given in paper PMC7340257, “Crystal structure and interaction studies of human DHTKD1 provide insight into a mitochondrial megacomplex in lysine catabolism” (IUCrJ, 2020).

Target: the molecule itself
Assay: SEC; analytical gel filtration of hDHTKD1_(45–919) WT and p.R715C alone; 20 mM HEPES pH 7.5, 150 mM NaCl, 0.5 mM TCEP

B1: human DHTKD1 residues 45-919, p.R715C variant, His-tagged (enzyme, UniProt Q96HY7 45-919, looked up)
chain: GALERPPVDHGLARLVTVYCEHGHKAAKINPLFTGQALLENVPEIQALVQTLQGPFHTAGLLNMGKEEASLEEVLVYLNQIYCGQISIETSQLQSQDEKDWFAKRFEELQKETFTTEERKHLSKLMLESQEFDHFLATKFSTVKRYGGEGAESMMGFFHELLKMSAYSGITDVIIGMPHRGRLNLLTGLLQFPPELMFRKMRGLSEFPENFSATGDVLSHLTSSVDLYFGAHHPLHVTMLPNPSHLEAVNPVAVGKTRGRQQSRQDGDYSPDNSAQPGDRVICLQVHGDASFCGQGIVPETFTLSNLPHFRIGGSVHLIVNNQLGYTTPAERGRSSLYCSDIGKLVGCAIIHVNGDSPEEVVRATRLAFEYQRQFRKDVIIDLLCYRQWGHNELDEPFYTNPIMYKIIRARKSIPDTYAEHLIAGGLMTQEEVSEIKSSYYAKLNDHLNNMAHYRPPALNLQAHWQGLAQPEAQITTWSTGVPLDLLRFVGMKSVEVPRELQMHSHLLKTHVQSRMEKMMDGIKLDWATAEALALGSLLAQGFNVRLSGQDVGRGTFSQRHAIVVCQETDDTYIPLNHMDPNQKGFLEVSNSPLSEEAVLGFEYGMSIESPKLLPLWEAQFGDFFNGAQIIFDTFISGGEAKWLLQSGIVILLPHGYDGAGPDHSSCRIECFLQMCDSAEEGVDGDTVNMFVVHPTTPAQYFHLLRRQMVRNFRKPLIVASPKMLLRLPAAVSTLQEMAPGTTFNPVIGDSSVDPKKVKTLVFCSGKHFYSLVKQRESLGAKKHDFAIIRVEELCPFPLDSLQQEMSKYKHVKDHIWSQEEPQNMGPWSFVSPRFEKQLACKLRLVGRPPLPVPAVGIGTVHLHQHEDILAKTFA
notes: PDB 6sy1 is the wild-type parent of the same limits; source: E. coli BL21(DE3)R3-Rosetta, purified
B1: binds.
